Laboratory results reported in patent publication US20230272390A1, “COMPOSITIONS AND METHODS FOR HEMOGLOBIN PRODUCTION” (THE CHILDREN'S HOSPITAL OF PHILADELPHIA, priority 2020, published 2023).

Legend:
[1] = biological target: T1, ZNF410 ZF1-5 (GST fusion) (Homo sapiens, UniProt Q86VK4 SEQ:217-366); experiment: FP; no measurable binding up to 2.5 uM; shares 7/17 bp with consensus; settings: tags: GST N-terminal (pGEX-6P-1, pXC2180); label: FAM 5' (top strand)
T1 sequence: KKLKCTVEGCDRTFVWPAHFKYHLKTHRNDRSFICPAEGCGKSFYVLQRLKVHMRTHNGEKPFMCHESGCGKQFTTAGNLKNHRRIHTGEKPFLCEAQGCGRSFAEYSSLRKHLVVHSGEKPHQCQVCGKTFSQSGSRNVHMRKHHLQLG
Description: To further gain insight into the molecular basis of how the ZNF410 tandem ZF domain recognizes its targeting DNA sequence, crystallization of the ZNF410-DNA complex was performed. The binding affinity of the ZNF410 ZF domain (ZF1-5) with the consensus motif was quantified by fluorescence polarization using purified GST fusion protein (Patel, et al. (2016) Methods Enzymol., 573:387-401). […] Next, the crystal structure of the ZF domain in complex with the same 17-bp oligo (5′-3′: […] (SEQ ID NO: 19); 3′-5′: […] (SEQ ID NO: 20)) containing the consensus motif was determined. The structure of the protein-DNA complex was solved by the single-wavelength anomalous diffraction (SAD) method (Hendrickson, et al. (1990) EMBO J., 9:1665-1672) at 2.75 Å resolution. As in conventional C2H2 ZF proteins (Wolfe, et al. (2000) Annu. Rev. Biophys. Biomol. Struct., 29:183-212), each of five fingers of ZNF410 comprises two strands and a helix, with two histidine residues in the helix together with one cysteine in each strand coordinating a zinc ion, forming a characteristic tetrahedral C2-Zn—H2 structural unit that confers rigidity to the fingers. When bound to DNA, ZF1-5 occupies the DNA major groove, with their α-helices toward DNA and the strands and the C2-Zn—H2 units facing outside (FIGS. 6B and C). […]

[2] = biological target: T2, ZNF410 ZF1-5 (GST removed) (Homo sapiens, UniProt Q86VK4 SEQ:217-366); experiment: structure; crystal structure 2.75 A, PDB 6WMI; settings: tags: none (GST cleaved with PreScission protease); label: FAM 5' (top strand) in FP
T2 sequence: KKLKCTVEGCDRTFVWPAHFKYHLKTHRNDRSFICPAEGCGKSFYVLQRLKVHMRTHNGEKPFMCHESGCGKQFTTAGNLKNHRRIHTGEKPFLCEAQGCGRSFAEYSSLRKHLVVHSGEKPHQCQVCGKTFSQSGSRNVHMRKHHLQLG

endogenous ZNF410 = biological target: T3, endogenous ZNF410 (Homo sapiens, UniProt Q86VK4); experiment: RT-qPCR in HUDEP-2 cells overexpressing HA-tagged ZNF410 constructs; format: cell-based
T3 construct: endogenous in cells; host or cells: HUDEP-2 (HUDEP-2-Cas9) cells, differentiated
T3 sequence (Q86VK4 1-478): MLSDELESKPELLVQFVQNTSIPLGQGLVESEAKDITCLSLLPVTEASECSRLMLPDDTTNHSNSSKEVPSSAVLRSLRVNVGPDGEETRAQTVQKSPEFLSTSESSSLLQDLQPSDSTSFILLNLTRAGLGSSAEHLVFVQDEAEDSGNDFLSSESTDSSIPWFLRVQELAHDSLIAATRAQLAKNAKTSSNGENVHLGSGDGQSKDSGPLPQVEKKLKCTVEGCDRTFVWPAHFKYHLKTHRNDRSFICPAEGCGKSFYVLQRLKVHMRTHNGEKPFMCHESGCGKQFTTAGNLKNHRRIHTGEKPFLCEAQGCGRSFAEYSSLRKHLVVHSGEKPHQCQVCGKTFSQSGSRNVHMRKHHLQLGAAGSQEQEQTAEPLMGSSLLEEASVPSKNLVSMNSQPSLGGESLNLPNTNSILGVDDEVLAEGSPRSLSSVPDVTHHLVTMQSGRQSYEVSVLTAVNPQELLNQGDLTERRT
Description: HUDEP-2 cells were cultured and differentiated as described (Kurita, et al. (2013) PLoS One 8:e59890). Briefly, StemSpan™ Serum-Free Expansion Medium (SFEM) supplemented with 50 ng/ml human stem cell factor (SCF), 10 μM dexamethasone, 1 μg/ml doxycycline, 3 IU/ml erythropoietin and 1% penicillin/streptomycin was utilized for routine cell maintenance. Cell density was kept at 0.1-1×10^6/ml. HUDEP-2 cells were differentiated for 6-7 days in IMDM supplemented with 50 ng/ml human SCF, 3 IU/ml erythropoietin, 2.5% fetal bovine serum, 250 μg/ml holo-transferrin, 10 ng/ml heparin, 10 μg/ml insulin, 1 μg/ml doxycycline and 1% penicillin/streptomycin.
SgRNAs were cloned into a lentiviral U6-sgRNA-EFS-GFP/mCherry expression vector (LRG, Addgene: #65656) by BsmBI digestion. The ZNF410 cDNA (clone ID: OHu10535), CHD4 cDNA (clone ID: OHu28780) were purchased from GenScript and were sub-cloned into a lentiviral vector pSDM101-IRES-GFP. ZNF410 variants were sub-cloned into pSDM101-IRES-GFP vector. The N-terminal HA tag was introduced by PCR. For EMSA, the ZNF410 full length or different ZF versions were sub-cloned into mammalian expression vector pcDNA3.
Lentivirus was produced as described (Grevet, et al. (2018) Science 361:285-290). Briefly, 10-20 μg of expression vectors, 5-10 μg of pVSVG (pMD2.G) and 7.5-15 μg of psPAX2 package plasmids, and 80 μl of 1 mg/ml polyethylenimine (PEI) were mixed, incubated for 15-20 minutes, and added to HEK293T cells grown in 10 cm plates to above 90% confluence. Media were replaced 6-8 hours post transfection, virus was collected 24 hours and 48 hours post-transfection and pooled. For infection, virus-containing supernatant was mixed with the indicated cell lines with 8 μg/ml polybrene and 10 mM HEPES, and then spun at 2250 rpm for 1.5 hours at room temperature. Infected HUDEP-2 cells were selected for mCherry+ or GFP+ cell sorting at 48 hours post-infection.
Total RNA was purified using the RNeasy® Plus Mini Kit (Qiagen), including an on-column DNAse treatment using RNase-free DNase set (Qiagen) to remove genomic DNA. Reverse transcription was accomplished using iScript™ Supermix (Bio-Rad). qPCR reactions were prepared with Power SYBR® Green (ThermoFisher Scientific). Quantification was performed using the ΔΔCT method.
Overexpression of ZF1-5 but not ZF2-4 should compete with endogenous ZNF410 for chromatin binding, thus acting in a dominant-negative manner. To test this hypothesis, a construct containing HA-tagged ZF1-5 or ZF2-4 driven by the EF1α promoter was introduced via lentiviral infection into HUDEP-2 cells. As control, the expression of full-length HA-tagged ZNF410 was forced. […] Moreover, full-length HA-ZNF410 when overexpressed to similar levels to HA-ZF1-5 also produced similar binding patterns (FIG. 4A). […] Thus, the ZF region is sufficient for chromatin occupancy but insufficient for CHD4 gene activation. […] Finally, the impact of ZNF410 expression on γ-globin levels was also measured.

[3] = test system: motifs from the CHD4 promoter and enhancer sites; experiment: EMSA with COS-7 nuclear extracts and radiolabeled probes; format: binding, human; settings: COS nuclear extracts, FLAG-tagged constructs, radiolabeled CHD4 motif probes
Description: Nuclear extracts were prepared from COS-7 cells transiently transfected with ZNF410 full-length and ZNF410 ZF1-5 plasmids. FuGENE® 6 (Promega) was used to transfect 5 μg of vector into 100 mm plates of COS-7 cells. A pcDNA3 empty vector was used as control. Cells were harvested 48 hours after transfection and nuclear extracts prepared (Andrews, et al. (1991) Nucleic Acids Res., 19:2499).
EMSAs were performed (Crossley, et al. (1996) Mol. Cell Biol., 16:1695-1705). The sense oligonucleotide was labelled with [γ-^32P]-adenosine triphosphate (Perkin Elmer) and boiled at 100° C. for 1 minute before addition of the antisense oligonucleotide and annealing of probe via slow cooling from 100° C. to room temperature. Probes were purified using Quick Spin Columns for radio-labelled DNA Purification (Roche). Nuclear extracts were harvested from COS-7 cells and samples and loaded on a 6% native polyacrylamide gel in TBE buffer (45 mM Tris, 45 mM boric acid, 1 mM EDTA). A ‘COS empty’ control lane was included to show binding of any background endogenous protein to the probe. […] Gels were run at 250 V for 1 hour, 45 minutes at 4° C. then dried under vacuum. […]
ZNF410 contains five tandem C2H2-type zinc fingers (ZFs) potentially involved in DNA binding (FIG. 5A). […] Direct DNA binding by full length (FL) ZNF410 to sequences found at the CHD4 gene was assessed by electrophoretic mobility shift assays (EMSAs). […]

B1: negative control oligo (dsDNA)
DNA 1: TCCACTGCCAGGACCTTT
DNA 2: AAAAGGTCCTGGCAGTGG
[1]
  binding result: no binding

B2: ZNF410 consensus oligo 17 bp (dsDNA)
DNA 1: CACATCCCATAATAATG
DNA 2: CATTATTATGGGATGTG
[2]
  binding result: binds

B3: ZNF410 FL: full-length tagged human ZNF410 (478 amino acids) overexpressed as control (protein)
chain: MLSDELESKPELLVQFVQNTSIPLGQGLVESEAKDITCLSLLPVTEASECSRLMLPDDTTNHSNSSKEVPSSAVLRSLRVNVGPDGEETRAQTVQKSPEFLSTSESSSLLQDLQPSDSTSFILLNLTRAGLGSSAEHLVFVQDEAEDSGNDFLSSESTDSSIPWFLRVQELAHDSLIAATRAQLAKNAKTSSNGENVHLGSGDGQSKDSGPLPQVEKKLKCTVEGCDRTFVWPAHFKYHLKTHRNDRSFICPAEGCGKSFYVLQRLKVHMRTHNGEKPFMCHESGCGKQFTTAGNLKNHRRIHTGEKPFLCEAQGCGRSFAEYSSLRKHLVVHSGEKPHQCQVCGKTFSQSGSRNVHMRKHHLQLGAAGSQEQEQTAEPLMGSSLLEEASVPSKNLVSMNSQPSLGGESLNLPNTNSILGVDDEVLAEGSPRSLSSVPDVTHHLVTMQSGRQSYEVSVLTAVNPQELLNQGDLTERRT
modifications: left off: small tags and cut ends
notes: full-length tagged human ZNF410 (478 amino acids) overexpressed as control
Endogenous ZNF410; overexpression in HUDEP-2 cells
  effect on CHD4 expression: increased
Endogenous ZNF410; overexpression in differentiated HUDEP-2 cells
  effect on γ-globin mRNA levels: slight decrease
[3]
  DNA binding in EMSA: comparable binding to each of the four DNA probes
